Assay results as given in patent US7064106B2, “Gene and use thereof” (Takeda Chemical Industries, Ltd., priority 1999, dated 2006).
Where no end group is shown, it is not given here.

Tests used:
[1] = molecular target: T1, binding of IRAP-His to GST-MD364N (UniProt P97629+Q9Y613); assay: Binding inhibition test / screening of compounds that inhibit the binding of IRAP to human MD36
T1 construct: to construct plasmid pET21-IRAP (1–109); made in house; host or cells: E. coli (BL21 for GST-MD36N4)
T1 sequence (Q9Y613 951-1164): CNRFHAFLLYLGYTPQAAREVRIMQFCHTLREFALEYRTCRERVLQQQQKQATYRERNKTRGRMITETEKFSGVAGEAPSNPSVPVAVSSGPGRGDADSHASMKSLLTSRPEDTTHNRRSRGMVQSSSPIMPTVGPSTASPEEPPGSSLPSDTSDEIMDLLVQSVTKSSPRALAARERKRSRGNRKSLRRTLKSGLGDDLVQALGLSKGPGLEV
T1 sequence (P97629 1-109): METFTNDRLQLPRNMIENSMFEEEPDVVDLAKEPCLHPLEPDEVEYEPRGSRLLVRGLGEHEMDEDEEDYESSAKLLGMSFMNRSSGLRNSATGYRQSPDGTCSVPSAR
Excerpt: The C terminal part (partial peptide encoded by the partial base sequence of 2995–3674 from the 5′ end in SEQ ID NO:2) of SEQ ID NO:1 (full-length cDNA of MD36) was used as human MD36. This DNA fragment was inserted into pGEX expression vector (Amersham Pharmacia) to construct expression plasmid pGEX-MD36N4 capable of expressing the human MD36 partial protein in the form fused to GST (glutathione S-transferase) protein (GST-MD36N4 protein) under control of tac promoter. However, the protease recognition site in these junctions was removed by applying PCR. Using pGEX-MD36N4, E. coli BL21 was transformed and the transformants were cultured in LB medium in a conventional manner while inducing expression by IPTG. After culture, the cells collected were disrupted by sonication followed by centrifugation of the cell homogenate. As a result, most of the GST-MD36N4 protein were present in the insoluble fraction. […]
Protein-protein binding test was carried out by the procedure shown below. […] After the wells were again rinsed 3 times with TBS-T, the IRAP-His protein remained in the wells was quantitatively assayed using anti-Penta-His antibody (Qiagen, Inc.). […] IRAP-His (1.0 μg/ml) or anti-Penta-His antibody (diluted to 2000 fold) and both were added to the GST-MD364N-coated or uncoated wells, and after washing with TBS-T, the amount of His-Tag remained in the wells was quantified. […]

profilin II = molecular target: T2, profilin II (Homo sapiens, UniProt P35080); assay: Yeast two-hybrid HIS3 growth test, MD36 and profilin family; format: cell-based; conditions: S. cerevisiae Y190; 40 mM 3-amino-1,2,4-triazole
T2 construct: expressed in transfected cells; host or cells: Saccharomyces cerevisiae Y190
T2 sequence (P35080 1-140 isoform P35080-2): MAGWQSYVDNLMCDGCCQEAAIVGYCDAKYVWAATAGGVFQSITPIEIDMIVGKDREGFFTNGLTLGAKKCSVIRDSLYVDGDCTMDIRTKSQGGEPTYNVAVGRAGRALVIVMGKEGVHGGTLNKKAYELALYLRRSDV
Excerpt: (§1) The protein-protein interaction between MD36 and the profilin family was detected by the yeast two-hybrid system. Based on pGBT9 (CLONTECH), expression plasmids were constructed to express the coding regions of profiling I (Evangelista et al., Science, 276, 118–122, 1997; Imamura et al., EMBO J., 16, 2745–2755, 1997; Tanaka, Biochem. Biophys. Res. Commun., 267, 479–481, 2000), profilin II (Schluter et al., Biohim. Biophys. Acta, 1359, 97–109, 1997), and profiling IIL in the form fused to yeast GAL4-DNA-binding domain protein under control of yeast ADH1 promoter. These plasmids were named pG-PFNI, pG-PFNII and pG-PFNIII, respectively (yeast selection marker was TRP1). On the other hand, expression plasmids that express the full-length sequence (SEQ ID NO:1) of MD36, which is IRAP-BP protein, or the coding region from this N-terminus to the sequence (SEQ ID NO:33) including the proline-rich domain in the form fused to yeast […] activated domain protein under control of yeast ADH1 promoter was constructed based on pACT2 (CLONTECH), and named pACT-MD36 and pACT-MD36NT, respectively (yeast selection marker was LEU2). pG-PFNI, pG-PFNII, pG-PFNIII or, pGBT9 for control was co-transfected to yeast Saccharomyces cerevisiae Y190 together with pACT-MD36 or pACT-MD36NT, and yeast strains bearing plasmids from the two were selected on SD medium free of tryptophan and leucine. S. cerevisiae Y190 is originally a histidine auxotrophic strain but when the introduced proteins on the plasmids show the interactions, reporter gene HIS3 is expressed and the strain becomes capable of growing on a histidine-free plate. The yeast strain acquired was spread on tryptophan, leucine and histidine-free SD medium supplemented with 40 mM 3-amino-1,2,4-triazole.

profilin I = assay: as above; format: cell-based; conditions: S. cerevisiae Y190; 40 mM 3-amino-1,2,4-triazole
Excerpt: as §1

profilin IIL = molecular target: T3, profilin IIL (Homo sapiens, UniProt P35080); assay: as above; format: cell-based; conditions: S. cerevisiae Y190; 40 mM 3-amino-1,2,4-triazole
T3 construct: expressed in transfected cells; host or cells: Saccharomyces cerevisiae Y190
T3 sequence (P35080 1-140): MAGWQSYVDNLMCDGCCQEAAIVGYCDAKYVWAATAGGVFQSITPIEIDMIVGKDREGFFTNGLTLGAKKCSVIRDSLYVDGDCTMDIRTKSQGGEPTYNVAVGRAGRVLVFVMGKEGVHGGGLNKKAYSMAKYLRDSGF
Description: Using as a template human skeletal muscle-derived cDNA and as an enzyme Pfu polymerase (STRATAGENE), the reaction was carried out at 95° C. for 30 seconds, at 65° C. for 45 seconds and at 72° C. for 60 seconds, for 35 cycles. As a result of PCR, the DNA fragment of 745 bp was found, in addition to the DNA fragment of 423 bp or profilin II, and named profilin IIL. The base sequence for cDNA of profilin IIL is shown by SEQ ID NO:29, and the amino acid sequence of profilin II is shown by SEQ ID NO:28.
The protein-protein interaction between MD36 and the profilin family was detected by the yeast two-hybrid system. Based on pGBT9 (CLONTECH), expression plasmids were constructed to express the coding regions of profiling I (Evangelista et al., Science, 276, 118–122, 1997; Imamura et al., EMBO J., 16, 2745–2755, 1997; Tanaka, Biochem. Biophys. Res. Commun., 267, 479–481, 2000), profilin II (Schluter et al., Biohim. Biophys. Acta, 1359, 97–109, 1997), and profiling IIL in the form fused to yeast GAL4-DNA-binding domain protein under control of yeast ADH1 promoter. These plasmids were named pG-PFNI, pG-PFNII and pG-PFNIII, respectively (yeast selection marker was TRP1). […]

For `O=C(O)c1cc(O)c2c(c1)[C@@H]([C@H]1c3cc(C(=O)O)cc(O)c3C(=O)c3c(OC4OC(CO)C(O)C(O)C4O)cccc31)c1cccc(OC3OC(CO)C(O)C(O)C3O)c1C2=O` (some centres unmarked) [Compound 1], the “binding inhibition (reduced amount of His-Tag remained on the plate)” value ([1]; library compound in DMSO, final concentration 1 μM) was “exhibited binding inhibition”.

With “IRAP (55–82): chemically synthesized biotinylated peptide, amino acids 55–82 from the N terminus of SEQ ID NO:11 (IRAP) (VRGLGEHEMDEDEEDYESSAKLLGMSFM; also: biotinylated; listed as Homo sapiens) [reference compound]” the “inhibition of the binding of IRAP-His to GST-MD364N” value ([1]; biotinylated IRAP (55–82) peptide added, several amounts (μg/well)) was “inhibited”.

B1: MD36NT: MD36 from the N terminus to the sequence including the proline-rich domain (SEQ ID NO:33) (protein, listed as Homo sapiens)
chain: MAGGEDRGDGEPVSVVTVRVQYLEDTDPFACANFPEPRRAPTCSLDGALPLGAQIPAVHRLLGAPLKLEDCALQVSPSGYYLDTELSLEEQREMLEGFYEEISKGRKPTLILRTQLSVRVNAILEKLYSSSGPELRRSLFSLKQIFQEDKDLVPEFVHSEGLSCLIRVGAAADHNYQSYILRALGQLMLFVDGMLGVVAHSDTIQWLYTLCASLSRLVVKTALKLLLVFVEYSENNAPLFIRAVNSVASTTGAPPWANLVSILEEKNGADPELLVYTVTLINKTLAALPDQDSFYDVTDALEQQGMEALVQRHLGTAGTDVDLRTQLVLYENALKLEDGDIEEAPGAGGRRERRKPSSEEGKRSRRSLEGGGCPARAPEPGPTGPASPVGPTSSTGPALLTGPASSPVGPPSGLQASVNLFPTISVAPSADTSSERSIYKLHQTASVWAPESPPVPQSPPGQARLEARFLENVAAAETEKQVALAQGRAETLAGAMPNEAGGHPDARQLWDSPETAPAARTPQSPAPCVLLRAQRSLAPEPKEPLIPASPKAEPIWELPTRAPRLSIGDLDFSDLGEDEDQDMLNVESVEAGKDIPAPSPPLPLLSGVPPPPPLPPPPPIKGPFPPPPPLPLAAPLPHSVPDSSALPTKRKTVKLFWRELKLAGGH
B1 was tested, and the “growth of yeast on tryptophan, leucine and histidine-free SD medium” value (shortened to “growth … leucine and histidine-free SD medium”) (profilin II) was “did not grow”, the “growth … leucine and histidine-free SD medium” value (profilin I) was “did not grow” and the “growth … leucine and histidine-free SD medium” value (profilin IIL) was “Growth of the yeast was noted”.
